Assays:
CD33 [1] = biological target: T1, CD33 (UniProt P20138 18-364, limits assumed); experiment: flow cytometry, MOLM-13 cells, anti-His-FITC detection
T1 construct: whole, on cells; also called Siglec-3; CD33 on MOLM-13 cells
Experimental: (§1) MOLM-13 cells were incubated with different CD33 BRIDGE variants at saturating concentrations. […] The MFI intensity correlates with the number of secondary antibodies bound to the CD33 BRIDGE variants that are only detected if they are bound to the MOLM-13 cells. MFI: median fluorescence intensity. BLItz: Bio-Layer interferometry (BLI) technology using HIS-tag identification tips. […] The higher the MFIR, the stronger the binding.

nfP2X7 CAR 1 [2] = biological target: T2, nfP2X7 CAR 1; experiment: flow cytometry, CAR T cells, anti-His-FITC, EGFR+ over EGFR- cells
T2 construct: Expressed on T cells with truncated EGFR as marker gene; also called anti-nfP2X7 receptor CAR 1; nfP2X7 targeted CAR on EGFR+ T cells
Outline: (§2)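 CAR T cells incubated with BRiDGE variants at saturating concentrations; bound BRiDGE detected with anti-His-FITC by flow cytometry. EGFR marks CAR expression. Value is median fluorescence intensity on EGFR+ (CAR+) cells divided by that on EGFR− (CAR−) cells.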

nfP2X7 CAR 1 [3] = biological target: T2, nfP2X7 CAR 1; experiment: flow cytometry, nfP2X7 CAR T cells (EGFR+), anti-His-FITC detection
nfP2X7 CAR 1 [4] = biological target: T2, nfP2X7 CAR 1; experiment: flow cytometry, CAR T cells, anti-His-FITC, EGFR+ MFI over background 0.4
Outline: as §2

CD33 [5] = biological target: T1, CD33; experiment: flow cytometry, MOLM-13 cells, anti-His-FITC detection, ratio to no bridge
Experimental: as §1

T1 sequence (P20138 18-364 limits assumed): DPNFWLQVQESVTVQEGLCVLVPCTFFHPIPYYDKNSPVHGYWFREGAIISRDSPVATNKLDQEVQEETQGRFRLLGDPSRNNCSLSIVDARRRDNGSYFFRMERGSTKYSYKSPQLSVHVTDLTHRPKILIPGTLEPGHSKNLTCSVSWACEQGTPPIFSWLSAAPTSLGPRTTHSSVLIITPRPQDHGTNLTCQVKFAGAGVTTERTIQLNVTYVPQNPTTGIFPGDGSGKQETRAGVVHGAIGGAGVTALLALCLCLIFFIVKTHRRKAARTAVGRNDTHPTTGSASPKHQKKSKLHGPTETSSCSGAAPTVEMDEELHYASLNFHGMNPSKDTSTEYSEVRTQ

Binder	MFI HisTag FITC (CD33 [1])	HisTag MFI Ratio of EGFR+/EGFR- (nfP2X7 CAR 1 [2])	MFI HisTag FITC in EGFR+ Population (nfP2X7 CAR 1 [3])	HisTag MFI Ratio (background 0.4) (nfP2X7 CAR 1 [4])	MFIR HisTag FITC (CD33 [5])
CD33 BRIDGE variant B22 (Fab, Lintuzumab-based Fab bridging molecule) light: DFPGHNYTTRNILPGLNITSTFHKTSGSGKEPKSSDKTHTDIQMTQSPSSLSASVGDRVTITCRASESVDNYGISFMNWFQQKPGKAPKLLIYAASNQGSGVPSRFSGSGSGTDFTLTISSLQPDDFATYYCQQSKEVPWTFGQGTKVEIKRTVAAPSVFIFPPSDEQLKSGTASVVCLLNNFYPREAKVQWKVDNALQSGNSQESVTEQDSKDSTYSLSSTLTLSKADYEKHKVYACEVTHQGLSSPVTKSFNRGECHHHHHH heavy: QVQLVQSGAEVKKPGSSVKVSCKASGYTFTDYNMHWVRQAPGQGLEWIGYIYPYNGGTGYNQKFKSKATITADESTNTAYMELSSLRSEDTAVYYCARGRPAMDYWGQGTLVTVSSASTKGPSVFPLAPSSKSTSGGTAALGCLVKDYFPEPVTVSWNSGALTSGVHTFPAVLQSSGLYSLSSVVTVPSSSLGTQTYICNVNHKPSNTKVDKKVEPKSCHHHHHH	4.61	3.1	1.44	3.6	6.88
CD33 BRIDGE variant B24 (Fab, Lintuzumab-based Fab bridging molecule) light: DFPGHNYTTRNILPGLNITSTFHKTSGSGKGGGGSEPKSSDKTHTDIQMTQSPSSLSASVGDRVTITCRASESVDNYGISFMNWFQQKPGKAPKLLIYAASNQGSGVPSRFSGSGSGTDFTLTISSLQPDDFATYYCQQSKEVPWTFGQGTKVEIKRTVAAPSVFIFPPSDEQLKSGTASVVCLLNNFYPREAKVQWKVDNALQSGNSQESVTEQDSKDSTYSLSSTLTLSKADYEKHKVYACEVTHQGLSSPVTKSFNRGECHHHHHH heavy: QVQLVQSGAEVKKPGSSVKVSCKASGYTFTDYNMHWVRQAPGQGLEWIGYIYPYNGGTGYNQKFKSKATITADESTNTAYMELSSLRSEDTAVYYCARGRPAMDYWGQGTLVTVSSASTKGPSVFPLAPSSKSTSGGTAALGCLVKDYFPEPVTVSWNSGALTSGVHTFPAVLQSSGLYSLSSVVTVPSSSLGTQTYICNVNHKPSNTKVDKKVEPKSCHHHHHH	6.25	3.5	1.82	4.6	9.33
CD33 BRIDGE variant B23 (Fab, Lintuzumab-based Fab bridging molecule) light: DFPGHNYTTRNILPGLNITSTFHKTSGSGKGSEPKSSDKTHTDIQMTQSPSSLSASVGDRVTITCRASESVDNYGISFMNWFQQKPGKAPKLLIYAASNQGSGVPSRFSGSGSGTDFTLTISSLQPDDFATYYCQQSKEVPWTFGQGTKVEIKRTVAAPSVFIFPPSDEQLKSGTASVVCLLNNFYPREAKVQWKVDNALQSGNSQESVTEQDSKDSTYSLSSTLTLSKADYEKHKVYACEVTHQGLSSPVTKSFNRGECHHHHHH heavy: QVQLVQSGAEVKKPGSSVKVSCKASGYTFTDYNMHWVRQAPGQGLEWIGYIYPYNGGTGYNQKFKSKATITADESTNTAYMELSSLRSEDTAVYYCARGRPAMDYWGQGTLVTVSSASTKGPSVFPLAPSSKSTSGGTAALGCLVKDYFPEPVTVSWNSGALTSGVHTFPAVLQSSGLYSLSSVVTVPSSSLGTQTYICNVNHKPSNTKVDKKVEPKSCHHHHHH	6.82	3.4	1.71	4.3	10.2
CD33 BRIDGE variant B27 (Fab, Lintuzumab-based Fab bridging molecule) light: DFPGHNYTTRNILPGLNITSGGGGSEPKSSDKTHTGSDIQMTQSPSSLSASVGDRVTITCRASESVDNYGISFMNWFQQKPGKAPKLLIYAASNQGSGVPSRFSGSGSGTDFTLTISSLQPDDFATYYCQQSKEVPWTFGQGTKVEIKRTVAAPSVFIFPPSDEQLKSGTASVVCLLNNFYPREAKVQWKVDNALQSGNSQESVTEQDSKDSTYSLSSTLTLSKADYEKHKVYACEVTHQGLSSPVTKSFNRGECHHHHHH heavy: QVQLVQSGAEVKKPGSSVKVSCKASGYTFTDYNMHWVRQAPGQGLEWIGYIYPYNGGTGYNQKFKSKATITADESTNTAYMELSSLRSEDTAVYYCARGRPAMDYWGQGTLVTVSSASTKGPSVFPLAPSSKSTSGGTAALGCLVKDYFPEPVTVSWNSGALTSGVHTFPAVLQSSGLYSLSSVVTVPSSSLGTQTYICNVNHKPSNTKVDKKVEPKSCHHHHHH	5.55	2.8	1.2	3	8.28
CD33 BRIDGE variant B26 (Fab, V domains shown, Lintuzumab-based Fab bridging molecule) VH: QVQLVQSGAEVKKPGSSVKVSCKASGYTFTDYNMHWVRQAPGQGLEWIGYIYPYNGGTGYNQKFKSKATITADESTNTAYMELSSLRSEDTAVYYCARGRPAMDYWGQGTLVTVSS VL: DIQMTQSPSSLSASVGDRVTITCRASESVDNYGISFMNWFQQKPGKAPKLLIYAASNQGSGVPSRFSGSGSGTDFTLTISSLQPDDFATYYCQQSKEVPWTFGQGTKVEIKR	5.75	2.8	1.22	3.1	8.58

The next lines start with the values.

MFI HisTag FITC (CD33 [1])	HisTag MFI Ratio of EGFR+/EGFR- (nfP2X7 CAR 1 [2])	MFI HisTag FITC in EGFR+ Population (nfP2X7 CAR 1 [3])	HisTag MFI Ratio (background 0.4) (nfP2X7 CAR 1 [4])	MFIR HisTag FITC (CD33 [5])	Binder
5.38	3.4	1.73	4.3	8.03	CD33 BRIDGE variant B29 (Fab, Lintuzumab-based Fab bridging molecule) light: DFPGHNYTTRNILPGLNITSTFHKTSGSGKGSEPKSSDKTHTGSDIQMTQSPSSLSASVGDRVTITCRASESVDNYGISFMNWFQQKPGKAPKLLIYAASNQGSGVPSRFSGSGSGTDFTLTISSLQPDDFATYYCQQSKEVPWTFGQGTKVEIKRTVAAPSVFIFPPSDEQLKSGTASVVCLLNNFYPREAKVQWKVDNALQSGNSQESVTEQDSKDSTYSLSSTLTLSKADYEKHKVYACEVTHQGLSSPVTKSFNRGECHHHHHH heavy: QVQLVQSGAEVKKPGSSVKVSCKASGYTFTDYNMHWVRQAPGQGLEWIGYIYPYNGGTGYNQKFKSKATITADESTNTAYMELSSLRSEDTAVYYCARGRPAMDYWGQGTLVTVSSASTKGPSVFPLAPSSKSTSGGTAALGCLVKDYFPEPVTVSWNSGALTSGVHTFPAVLQSSGLYSLSSVVTVPSSSLGTQTYICNVNHKPSNTKVDKKVEPKSCHHHHHH
7.09	3	1.34	3.4	10.6	CD33 BRIDGE variant B31 (Fab, Lintuzumab-based Fab bridging molecule) light: DFPGHNYTTRNILPGLNITSEPKSSDKTHTGGGGSDIQMTQSPSSLSASVGDRVTITCRASESVDNYGISFMNWFQQKPGKAPKLLIYAASNQGSGVPSRFSGSGSGTDFTLTISSLQPDDFATYYCQQSKEVPWTFGQGTKVEIKRTVAAPSVFIFPPSDEQLKSGTASVVCLLNNFYPREAKVQWKVDNALQSGNSQESVTEQDSKDSTYSLSSTLTLSKADYEKHKVYACEVTHQGLSSPVTKSFNRGECHHHHHH heavy: QVQLVQSGAEVKKPGSSVKVSCKASGYTFTDYNMHWVRQAPGQGLEWIGYIYPYNGGTGYNQKFKSKATITADESTNTAYMELSSLRSEDTAVYYCARGRPAMDYWGQGTLVTVSSASTKGPSVFPLAPSSKSTSGGTAALGCLVKDYFPEPVTVSWNSGALTSGVHTFPAVLQSSGLYSLSSVVTVPSSSLGTQTYICNVNHKPSNTKVDKKVEPKSCHHHHHH
6.29	3.3	1.63	4.1	9.39	CD33 BRIDGE variant B30 (Fab, Lintuzumab-based Fab bridging molecule) light: DFPGHNYTTRNILPGLNITSTFHKTSGSGKGGGGSEPKSSDKTHTGSDIQMTQSPSSLSASVGDRVTITCRASESVDNYGISFMNWFQQKPGKAPKLLIYAASNQGSGVPSRFSGSGSGTDFTLTISSLQPDDFATYYCQQSKEVPWTFGQGTKVEIKRTVAAPSVFIFPPSDEQLKSGTASVVCLLNNFYPREAKVQWKVDNALQSGNSQESVTEQDSKDSTYSLSSTLTLSKADYEKHKVYACEVTHQGLSSPVTKSFNRGECHHHHHH heavy: QVQLVQSGAEVKKPGSSVKVSCKASGYTFTDYNMHWVRQAPGQGLEWIGYIYPYNGGTGYNQKFKSKATITADESTNTAYMELSSLRSEDTAVYYCARGRPAMDYWGQGTLVTVSSASTKGPSVFPLAPSSKSTSGGTAALGCLVKDYFPEPVTVSWNSGALTSGVHTFPAVLQSSGLYSLSSVVTVPSSSLGTQTYICNVNHKPSNTKVDKKVEPKSCHHHHHH
6.33	3.2	1.58	4	9.45	CD33 BRIDGE variant B28 (Fab, Lintuzumab-based Fab bridging molecule) light: DFPGHNYTTRNILPGLNITSTFHKTSGSGKEPKSSDKTHTGSDIQMTQSPSSLSASVGDRVTITCRASESVDNYGISFMNWFQQKPGKAPKLLIYAASNQGSGVPSRFSGSGSGTDFTLTISSLQPDDFATYYCQQSKEVPWTFGQGTKVEIKRTVAAPSVFIFPPSDEQLKSGTASVVCLLNNFYPREAKVQWKVDNALQSGNSQESVTEQDSKDSTYSLSSTLTLSKADYEKHKVYACEVTHQGLSSPVTKSFNRGECHHHHHH heavy: QVQLVQSGAEVKKPGSSVKVSCKASGYTFTDYNMHWVRQAPGQGLEWIGYIYPYNGGTGYNQKFKSKATITADESTNTAYMELSSLRSEDTAVYYCARGRPAMDYWGQGTLVTVSSASTKGPSVFPLAPSSKSTSGGTAALGCLVKDYFPEPVTVSWNSGALTSGVHTFPAVLQSSGLYSLSSVVTVPSSSLGTQTYICNVNHKPSNTKVDKKVEPKSCHHHHHH

Source: patent publication US20250281611A1 (BIOSCEPTRE AUST, published 2025)
